From paper PMC5838168, “Effect of human very low-density lipoproteins on cardiotrophin-like cytokine factor 1 (CLCF1) activity” (Scientific Reports, 2018) come the findings set out here.

This assay has as its target T1, recombinant ApoE3 (human, UniProt P02649 19-317).
T1 construct: Apolipoprotein E, isoform ApoE3; also called apolipoprotein E3; source: bought: BioVision
Briefly: AlphaScreen or HTRF; AlphaLISA: ApoE2, 3 or 4 (0-100 nM) with biotinylated CLCF1 (10 nM) in PBS 0.1% BSA, rat anti-ApoE IgG (3 nM), anti-rat IgG acceptor beads, streptavidin donor beads; also with ApoE (30 nM) preincubated with DMPC (0-1000 uM) 1 h at 37 °C. To be noted: both partners purified.

T1 sequence (P02649 19-317): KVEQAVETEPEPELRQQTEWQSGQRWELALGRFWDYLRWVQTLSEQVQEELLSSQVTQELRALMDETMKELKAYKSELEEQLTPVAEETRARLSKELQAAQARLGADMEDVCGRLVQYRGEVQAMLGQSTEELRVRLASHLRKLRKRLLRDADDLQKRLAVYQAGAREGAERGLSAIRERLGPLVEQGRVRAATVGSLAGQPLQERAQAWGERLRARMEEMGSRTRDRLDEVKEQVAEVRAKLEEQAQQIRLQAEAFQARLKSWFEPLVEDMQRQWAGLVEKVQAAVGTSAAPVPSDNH

B1: biotinylated human CLCF1 (cardiotrophin-like cytokine factor 1) (ligand, UniProt Q9UBD9 28-225, looked up)
chain: LNRTGDPGPGPSIQKTYDLTRYLEHQLRSLAGTYLNYLGPPFNEPDFNPPRLGAETLPRATVDLEVWRSLNDKLRLTQNYEAYSHLLCYLRGLNRQAATAELRRSLAHFCTSLQGLLGSIAGVMAALGYPLPQPLPGTEPTWTPGPAHSDFLQKMDDFWLLKELQTWLWRSAKDFNRLKKKMQPPAAAVTLHLGAHGF
modifications: biotin on the Avitag (BirA biotin-ligase)
notes: Cardiotrophin-like cytokine factor 1 (CLCF1), human, mature protein, codon optimized synthetic cDNA in pET24d; also called biotinylated hCLCF1; hCLC biot
With B1, the binding result was “binds”.
